# Molecular target: human CD96, native, on primary human T cells (human) (UniProt P40200)
# Assay: flow cytometry on primary human CD3+ T cells
row,EC50,Binder
1,0.05 nM,"42Y073-86F08-3 (antibody, V domains shown) VH: QVQLVQSGAEVKKPGSSVKVSCKASGGTFVNYAISWVRQAPGQGLEWMGGIIPALGTANYAQKFQGRVTITADESTSTAYMELSSLRSEDTAVYYCARGAGYYGDKDPMDVWGQGTTVTVSS VL: DIQLTQSPSSLSASVGDRVTITCRASQSISSYLNWYQQKPGKAPKLLIYAASSLQSGVPSRFSGSGSGTDFTLTISSLQPEDFATYYCQQVLHTITFGGGTKVEIK"
2,0.18 nM,"42Y073-86F08-22 (antibody, V domains shown) VH: QVQLVQSGAEVKKPGASVKVSCKASGYTFDSYAMHWVRQAPGQGLEWMGGIIPIFGTAWYAQKFQGRVTITADESTSTAYMELSSLRSEDTAVYYCARGAGYYGDKDPMDVWGQGTTVTVSS VL: DIQLTQSPSSLSASVGDRVTITCRASQSISSYLNWYQQKPGKAPKLLIYAASSLQSGVPSRFSGSGSGTDFTLTISSLQPEDFATYYCQQVLHTITFGGGTKVEIK"
3,0.01 nM,"42Y073-86F08-17 (antibody, V domains shown) VH: QVQLVQSGAEVKKPGSSVKVSCKASGGTFREYAISWVRQAPGQGLEWMGGIIPVFGTANYAQKFQGRVTITADESTSTAYMELSSLRSEDTAVYYCARGAGYYGDKDPMDVWGQGTTVTVSS VL: DIQLTQSPSSLSASVGDRVTITCRASQSISSYLNWYQQKPGKAPKLLIYAASSLQSGVPSRFSGSGSGTDFTLTISSLQPEDFATYYCQQVLHTITFGGGTKVEIK"
4,0.03 nM,"42Y073-86F08-47 (antibody, V domains shown) VH: QVQLVQSGAEVKKPGSSVKVSCKASGGTFSQYAIHWVRQAPGQGLEWMGVIIPIFGKANYAQKFQGRVTITADESTSTAYMELSSLRSEDTAVYYCARGAGYYGDKDPMDVWGQGTTVTVSS VL: DIQLTQSPSSLSASVGDRVTITCRASQSISSYLNWYQQKPGKAPKLLIYAASSLQSGVPSRFSGSGSGTDFTLTISSLQPEDFATYYCQQVLHTITFGGGTKVEIK"
5,0.04 nM,"42Y073-86F08-8 (antibody, V domains shown) VH: QVQLVQSGAEVKKPGSSVKVSCKASGGTFWLYAISWVRQAPGQGLEWMGGIIPQLGTANYAQKFQGRVTITADESTSTAYMELSSLRSEDTAVYYCARGAGYYGDKDPMDVWGQGTTVTVSS VL: DIQLTQSPSSLSASVGDRVTITCRASQSISSYLNWYQQKPGKAPKLLIYAASSLQSGVPSRFSGSGSGTDFTLTISSLQPEDFATYYCQQVLHTITFGGGTKVEIK"
6,0.01 nM,"42Y073-86F08-4 (antibody, V domains shown) VH: QVQLVQSGAEVKKPGSSVKVSCKASGGTFSEYAIHWVRQAPGQGLEWMGNIIPIFGTAGYAQKFQGRVTITADESTSTAYMELSSLRSEDTAVYYCARGAGYYGDKDPMDVWGQGTTVTVSS VL: DIQLTQSPSSLSASVGDRVTITCRASQSISSYLNWYQQKPGKAPKLLIYAASSLQSGVPSRFSGSGSGTDFTLTISSLQPEDFATYYCQQVLHTITFGGGTKVEIK"
7,0.01 nM,"42Y073-86F04-18 (antibody, V domains shown) VH: QVQLVQSGAEVKKPGSSVKVSCKASGGTFSSRAISWVRQAPGQGLEWMGGIIPIMGTARYAQKFQGRVTITADESTSTAYMELSSLRSEDTAVYYCARLLGESGMDVWGQGTTVTVSS VL: DIQMTQSPSSLSASVGDRVTITCRASQSISSYLNWYQQKPGKAPKLLIYAASSLQSGVPSRFSGSGSGTDFTLTISSLQPEDFATYYCQQPYFSPPTFGGGTKVEIK"

# The remaining lines, values behind:
row,Binder,EC50
1,"42Y073-1A01-100 (antibody, V domains shown) VH: QVQLVQSGAEVKKPGASVKVSCKASGYTFTTYRMHWVRQAPGQGLEWMGIINPSGGLTQYAQKFQGRVTMTRDTSTSTVYMELSSLRSEDTAVYYCARETAYYTTKGNWFDPWGQGTLVTVSS VL: DIQMTQSPSSLSASVGDRVTITCRASQSISSYLNWYQQKPGKAPKLLIYAASSLQSGVPSRFSGSGSGTDFTLTISSLQPEDFATYYCQQSLYPPRTFGGGTKVEIK",0.01 nM
2,"42Y073-1A01-191 (antibody, V domains shown) VH: QVQLVQSGAEVKKPGASVKVSCKASGYTFTKYRMHWVRQAPGQGLEWMGIINPQGGSTSYAQKFQGRVTMTRDTSTSTVYMELSSLRSEDTAVYYCARETAYYTTKGNWFDPWGQGTLVTVSA VL: DIQMTQSPSSLSASVGDRVTITCRASQSISSYLNWYQQKPGKAPKLLIYAASSLQSGVPSRFSGSGSGTDFTLTISSLQPEDFATYYCQQSLYPPRTFGGGTKVEIK",0.38 nM
3,"42Y073-86F04-5 (antibody, V domains shown) VH: QVQLVQSGAEVKKPGSSVKVSCKASGGTFSSHAISWVRQAPGQGLEWMGGIIPIFGRGKYAQKFQGRVTITADESTSTAYMELSSLRSEDTAVYYCARLLGESGMDVWGQGTTVTVSS VL: DIQMTQSPSSLSASVGDRVTITCRASQSISSYLNWYQQKPGKAPKLLIYAASSLQSGVPSRFSGSGSGTDFTLTISSLQPEDFATYYCQQPYFSPPTFGGGTKVEIK",0.05 nM
4,"42Y073-1A01-103 (antibody, V domains shown) VH: QVQLVQSGAEVKKPGASVKVSCKASGYTFTAYQMHWVRQAPGQGLEWMGIINPAGGWTSYAQKFQGRVTMTRDTSTSTVYMELSSLRSEDTAVYYCARETAYYTTKGNWFDPWGQGTLVTVSS VL: DIQMTQSPSSLSASVGDRVTITCRASQSISSYLNWYQQKPGKAPKLLIYAASSLQSGVPSRFSGSGSGTDFTLTISSLQPEDFATYYCQQSLYPPRTFGGGTKVEIK",0.01 nM
5,"42Y073-86F04-6 (antibody, V domains shown) VH: QVQLVQSGAEVKKPGSSVKVSCKASGGTFSGHAISWVRQAPGQGLEWMGGIIPIFGRARYAQKFQGRVTITADESTSTAYMELSSLRSEDTAVYYCARLLGESGMDVWGQGTTVTVSS VL: DIQMTQSPSSLSASVGDRVTITCRASQSISSYLNWYQQKPGKAPKLLIYAASSLQSGVPSRFSGSGSGTDFTLTISSLQPEDFATYYCQQPYFSPPTFGGGTKVEIK",0.01 nM
6,"42Y073-1A01-85 (antibody, V domains shown) VH: QVQLVQSGAEVKKPGASVKVSCKASGYTFTSYPMHWVRQAPGQGLEWMGIINPSGGFTSYAQKFQGRVTMTRDTSTSTVYMELSSLRSEDTAVYYCARETAYYTTKGNWFDPWGQGTLVTVSA VL: DIQMTQSPSSLSASVGDRVTITCRASQSISSYLNWYQQKPGKAPKLLIYAASSLQSGVPSRFSGSGSGTDFTLTISSLQPEDFATYYCQQSLYPPRTFGGGTKVEIK",0.32 nM
7,"42Y073-86F04-4 (antibody, V domains shown) VH: QVQLVQSGAEVKKPGSSVKVSCKASGGTFESEAISWVRQAPGQGLEWMGGIIPIFGRARYAQKFQGRVTITADESTSTAYMELSSLRSEDTAVYYCARLLGESGMDVWGQGTTVTVSS VL: DIQMTQSPSSLSASVGDRVTITCRASQSISSYLNWYQQKPGKAPKLLIYAASSLQSGVPSRFSGSGSGTDFTLTISSLQPEDFATYYCQQPYFSPPTFGGGTKVEIK",0.05 nM
8,"42Y073-86F04-3 (antibody, V domains shown) VH: QVQLVQSGAEVKKPGSSVKVSCKASGGTFSYNAISWVRQAPGQGLEWMGGIIPIMGTARYAQKFQGRVTITADESTSTAYMELSSLRSEDTAVYYCARLLGESGMDVWGQGTTVTVSS VL: DIQMTQSPSSLSASVGDRVTITCRASQSISSYLNWYQQKPGKAPKLLIYAASSLQSGVPSRFSGSGSGTDFTLTISSLQPEDFATYYCQQPYFSPPTFGGGTKVEIK",0.09 nM

# — patent US12528864
